Where “and” joins values, the source holds several entries; their conditions need not be identical. Equal values may be shown once.
Conditions: Capra hircus, pH 7, Thermal, CD, sodium cacodylate 50 mM, NaCl 50 mM, reversible: Yes, whole UniProt chain shown

B1: Alpha-lactalbumin wild type, P00712 (protein)
chain: MMSFVSLLLVGILFHATQAEQLTKCEVFQKLKDLKDYGGVSLPEWVCTAFHTSGYDTQAIVQNNDSTEYGLFQINNKIWCKDDQNPHSRNICNISCDKFLDDDLTDDIVCAKKILDKVGINYWLAHKALCSEKLDQWLCEKL
59 °C
  heat capacity change of unfolding: 1.8 kcal/mol/K
  unfolding free energy: 0 kcal/mol
  heat capacity change of unfolding: 1.8 kcal/mol/K
  unfolding enthalpy (van 't Hoff): 85.1 kcal/mol and 69.5 kcal/mol
